The source of these data is US11466286B2, “Methods and compositions for conferring and/or enhancing herbicide tolerance using protoporphyrinogen oxidase or variant thereof” (FarmHannong Co., Ltd., priority 2016, dated 2022).

B1: CyPPO10 F360V: CyPPO10 (SEQ ID NO: 2) PPO variant (protein)
chain: MIEVDVAIVGGGLSGLSVAWRLQRSAPHYSGVLLEASDRLGGNITTQAAEGFVWELGPNSFAPTPALLQLIAEVGLHSELIRGDRHLPRYIYWRGELYPLEPTRPLALATSNLLSPWGKVRAALGALGFVPPYLGSGDESVDSFFRRHLGQEVAERLVAPFVSGVYAGDPQQLSAAAAFRRIAQLEKLGGSLIAGALRLRRQQPPQPKPPAQVQMRPGELGSFREGLAALPRAIAQQLKAPLHLQTPVEAITPEPKGGYLLRSGEQTWHARSVVLATPAYQTAELVAPFQPAIARALATIPYPTVACVVLAYPAGLGRSVRPGFGVLVPRGQGIRTLGTIWSSCLFPQRTPAGWQVFTSVIGGATDPDLASLREEAIVEQVQQDLTRLLDLPAAKARLLGMKVWRRAIPQYIVGYPQQWQQVTHALTQTPGLFLCSNYAEGVALGDRVEHGNRTAAAVAAYLAGGQS
modifications: Synthetic CyPPO10
B2: CyPPO10 R89A + F360I: CyPPO10 (SEQ ID NO: 2) PPO variant (protein)
chain: MIEVDVAIVGGGLSGLSVAWRLQRSAPHYSGVLLEASDRLGGNITTQAAEGFVWELGPNSFAPTPALLQLIAEVGLHSELIRGDRHLPAYIYWRGELYPLEPTRPLALATSNLLSPWGKVRAALGALGFVPPYLGSGDESVDSFFRRHLGQEVAERLVAPFVSGVYAGDPQQLSAAAAFRRIAQLEKLGGSLIAGALRLRRQQPPQPKPPAQVQMRPGELGSFREGLAALPRAIAQQLKAPLHLQTPVEAITPEPKGGYLLRSGEQTWHARSVVLATPAYQTAELVAPFQPAIARALATIPYPTVACVVLAYPAGLGRSVRPGFGVLVPRGQGIRTLGTIWSSCLFPQRTPAGWQVFTSIIGGATDPDLASLREEAIVEQVQQDLTRLLDLPAAKARLLGMKVWRRAIPQYIVGYPQQWQQVTHALTQTPGLFLCSNYAEGVALGDRVEHGNRTAAAVAAYLAGGQS
modifications: Synthetic CyPPO10
B3: CyPPO10 N59T + F360V: CyPPO10 (SEQ ID NO: 2) PPO variant (protein)
chain: MIEVDVAIVGGGLSGLSVAWRLQRSAPHYSGVLLEASDRLGGNITTQAAEGFVWELGPTSFAPTPALLQLIAEVGLHSELIRGDRHLPRYIYWRGELYPLEPTRPLALATSNLLSPWGKVRAALGALGFVPPYLGSGDESVDSFFRRHLGQEVAERLVAPFVSGVYAGDPQQLSAAAAFRRIAQLEKLGGSLIAGALRLRRQQPPQPKPPAQVQMRPGELGSFREGLAALPRAIAQQLKAPLHLQTPVEAITPEPKGGYLLRSGEQTWHARSVVLATPAYQTAELVAPFQPAIARALATIPYPTVACVVLAYPAGLGRSVRPGFGVLVPRGQGIRTLGTIWSSCLFPQRTPAGWQVFTSVIGGATDPDLASLREEAIVEQVQQDLTRLLDLPAAKARLLGMKVWRRAIPQYIVGYPQQWQQVTHALTQTPGLFLCSNYAEGVALGDRVEHGNRTAAAVAAYLAGGQS
modifications: Synthetic CyPPO10
B4: CyPPO10 R89A + F360M: CyPPO10 (SEQ ID NO: 2) PPO variant (protein)
chain: MIEVDVAIVGGGLSGLSVAWRLQRSAPHYSGVLLEASDRLGGNITTQAAEGFVWELGPNSFAPTPALLQLIAEVGLHSELIRGDRHLPAYIYWRGELYPLEPTRPLALATSNLLSPWGKVRAALGALGFVPPYLGSGDESVDSFFRRHLGQEVAERLVAPFVSGVYAGDPQQLSAAAAFRRIAQLEKLGGSLIAGALRLRRQQPPQPKPPAQVQMRPGELGSFREGLAALPRAIAQQLKAPLHLQTPVEAITPEPKGGYLLRSGEQTWHARSVVLATPAYQTAELVAPFQPAIARALATIPYPTVACVVLAYPAGLGRSVRPGFGVLVPRGQGIRTLGTIWSSCLFPQRTPAGWQVFTSMIGGATDPDLASLREEAIVEQVQQDLTRLLDLPAAKARLLGMKVWRRAIPQYIVGYPQQWQQVTHALTQTPGLFLCSNYAEGVALGDRVEHGNRTAAAVAAYLAGGQS
modifications: Synthetic CyPPO10
B5: CyPPO10 V165S + F360I: CyPPO10 (SEQ ID NO: 2) PPO variant (protein)
chain: MIEVDVAIVGGGLSGLSVAWRLQRSAPHYSGVLLEASDRLGGNITTQAAEGFVWELGPNSFAPTPALLQLIAEVGLHSELIRGDRHLPRYIYWRGELYPLEPTRPLALATSNLLSPWGKVRAALGALGFVPPYLGSGDESVDSFFRRHLGQEVAERLVAPFVSGSYAGDPQQLSAAAAFRRIAQLEKLGGSLIAGALRLRRQQPPQPKPPAQVQMRPGELGSFREGLAALPRAIAQQLKAPLHLQTPVEAITPEPKGGYLLRSGEQTWHARSVVLATPAYQTAELVAPFQPAIARALATIPYPTVACVVLAYPAGLGRSVRPGFGVLVPRGQGIRTLGTIWSSCLFPQRTPAGWQVFTSIIGGATDPDLASLREEAIVEQVQQDLTRLLDLPAAKARLLGMKVWRRAIPQYIVGYPQQWQQVTHALTQTPGLFLCSNYAEGVALGDRVEHGNRTAAAVAAYLAGGQS
modifications: Synthetic CyPPO10
B6: CyPPO10 V165S + F360M: CyPPO10 (SEQ ID NO: 2) PPO variant (protein)
chain: MIEVDVAIVGGGLSGLSVAWRLQRSAPHYSGVLLEASDRLGGNITTQAAEGFVWELGPNSFAPTPALLQLIAEVGLHSELIRGDRHLPRYIYWRGELYPLEPTRPLALATSNLLSPWGKVRAALGALGFVPPYLGSGDESVDSFFRRHLGQEVAERLVAPFVSGSYAGDPQQLSAAAAFRRIAQLEKLGGSLIAGALRLRRQQPPQPKPPAQVQMRPGELGSFREGLAALPRAIAQQLKAPLHLQTPVEAITPEPKGGYLLRSGEQTWHARSVVLATPAYQTAELVAPFQPAIARALATIPYPTVACVVLAYPAGLGRSVRPGFGVLVPRGQGIRTLGTIWSSCLFPQRTPAGWQVFTSMIGGATDPDLASLREEAIVEQVQQDLTRLLDLPAAKARLLGMKVWRRAIPQYIVGYPQQWQQVTHALTQTPGLFLCSNYAEGVALGDRVEHGNRTAAAVAAYLAGGQS
modifications: Synthetic CyPPO10
B7: CyPPO10 R89A + F360L: CyPPO10 (SEQ ID NO: 2) PPO variant (protein)
chain: MIEVDVAIVGGGLSGLSVAWRLQRSAPHYSGVLLEASDRLGGNITTQAAEGFVWELGPNSFAPTPALLQLIAEVGLHSELIRGDRHLPAYIYWRGELYPLEPTRPLALATSNLLSPWGKVRAALGALGFVPPYLGSGDESVDSFFRRHLGQEVAERLVAPFVSGVYAGDPQQLSAAAAFRRIAQLEKLGGSLIAGALRLRRQQPPQPKPPAQVQMRPGELGSFREGLAALPRAIAQQLKAPLHLQTPVEAITPEPKGGYLLRSGEQTWHARSVVLATPAYQTAELVAPFQPAIARALATIPYPTVACVVLAYPAGLGRSVRPGFGVLVPRGQGIRTLGTIWSSCLFPQRTPAGWQVFTSLIGGATDPDLASLREEAIVEQVQQDLTRLLDLPAAKARLLGMKVWRRAIPQYIVGYPQQWQQVTHALTQTPGLFLCSNYAEGVALGDRVEHGNRTAAAVAAYLAGGQS
modifications: Synthetic CyPPO10
B8: CyPPO10 V165S + F360L: CyPPO10 (SEQ ID NO: 2) PPO variant (protein)
chain: MIEVDVAIVGGGLSGLSVAWRLQRSAPHYSGVLLEASDRLGGNITTQAAEGFVWELGPNSFAPTPALLQLIAEVGLHSELIRGDRHLPRYIYWRGELYPLEPTRPLALATSNLLSPWGKVRAALGALGFVPPYLGSGDESVDSFFRRHLGQEVAERLVAPFVSGSYAGDPQQLSAAAAFRRIAQLEKLGGSLIAGALRLRRQQPPQPKPPAQVQMRPGELGSFREGLAALPRAIAQQLKAPLHLQTPVEAITPEPKGGYLLRSGEQTWHARSVVLATPAYQTAELVAPFQPAIARALATIPYPTVACVVLAYPAGLGRSVRPGFGVLVPRGQGIRTLGTIWSSCLFPQRTPAGWQVFTSLIGGATDPDLASLREEAIVEQVQQDLTRLLDLPAAKARLLGMKVWRRAIPQYIVGYPQQWQQVTHALTQTPGLFLCSNYAEGVALGDRVEHGNRTAAAVAAYLAGGQS
modifications: Synthetic CyPPO10

The test system of the assay is CyPPO10. Put plainly: PPO enzyme activity and IC50 by herbicides, CyPPO10 wild type and variants (MBP-PPO fusion). Format: biochemical, Thermosynechococcus elongatus BP-1. Particulars: PPO enzyme activity of CyPPO10 protein, wild type = 100. The method, then: The enzyme activities of PPO protein and PPO protein variants were examined, and inhibition assay by PPO-inhibiting herbicides was conducted. It was confirmed that the PPO protein has low water-solubility, but in case of being expressed as a fusion protein with MBP (maltose binding protein) (MBP-PPO), the PPO protein is able to be stably expressed as water-soluble form. Therefore, the wild type and variant proteins which were expressed in the form of fusion protein with MBP were used in the present test (refer to FIG. 4).
In order to express wild type genes and mutant genes of CyPPO10 and CyPPO13 (refer to Example 1 and Example 4), those genes were introduced to pMAL-c2X vector (refer to FIG. 5) respectively, and then cloned to BL21 (DE3) E. coli (CodonPlus).
The enzyme activity of the purified wild type protein and variant proteins of CyPPO10 and CyPPO13 was measured by the following process.
At first, a substrate of PPO protein, Protoporphyrinogen IX was synthesized. This process was performed in the space where nitrogen gas is streamed. 6 mg of protoporphyrin IX was dissolved in 20% (v/v) EtOH 20 ml, and stirred under dark condition for 30 minutes. The obtained protoporphyrinogen IX solution was put into a 15 ml screw tube in an amount of 800 and flushed with nitrogen gas for 5 minutes. To this, 1 g of sodium amalgam was added and vigorous shaking was performed for 2 minutes. The lid was open to exhaust hydrogen gas in the tube. Thereafter, the lid was closed and incubated for 3 minutes. The […] was filtered using syringe and cellulose membrane filter. To 600 μl of the obtained […], 2M MOPS [3-(N-morpholino)propanesulfonic acid] was added in an amount of approximately 300 thereby adjusting pH to 8.0. To determine the enzyme activity of PPO protein, a reaction mixture was prepared with the following composition (based on 10 ml): 50 mM Tris-Cl (pH 8.0); 50 mM NaCl; 0.04% (v/v) Tween 20; 40 mM glucose (0.072 g); 5 units glucose oxidase (16.6 mg); and 10 units catalase (1 μl).
Two hundred microliters (200 μl) of reaction mixture containing a purified PPO protein were placed in 96 well plates, and preincubated for 30 min at room temperature to reduce the oxygen concentration by the reaction of glucose oxidase-catalase. The mineral oil was layered and then the reaction was initiated by adding the substrate, […], to a final concentration of 50 μM. The reaction proceeded at room temperature for 30 min and the fluorescence of protoporphyrin IX was measured using Microplate reader (Sense, Hidex) (excitation: 405 nm; emission: 633 nm). To calculate the PPO enzyme activity, protoporphyrinogen IX solution was kept open in the air to oxidize the solution (overnight). To this, 2.7N HCl was added, and the absorbance at 408 nm was measured. A standard curve was generated using standard protoporphyrin IX, and the PPO activity was measured by calibration of protoporphyrin IX using the standard curve of protoporphyrin IX.
The final concentration of each herbicide was as follows: […]
As for B1, the “Activity (%)” value is on record as 56%. The figure for B2 is 38%. As for B3, the “Activity (%)” value is 62%.

As to B4, the “Activity (%)” value is recorded as 67%.

B5: the “Activity (%)” value came to 63%. For B6, the “Activity (%)” value worked out at 78%. On to B7, for which the “Activity (%)” value is reported as 30%. B8: the “Activity (%)” value was 59%.
